US20230331862A1 (SHANGHAI GENBASE BIOTECHNOLOGY, published 2023)

T1: CEACAM5 (CD66e) on tumour cells (human, UniProt P06731 35-685, glycosylated (natural, as on tumour cells))
T1 construct: whole, on cells; One molecule for CEACAM5 on all three cell lines; the cell line is named under assay; also called natural CEACAM5 antigen; Lovo cells
T1 sequence (looked up): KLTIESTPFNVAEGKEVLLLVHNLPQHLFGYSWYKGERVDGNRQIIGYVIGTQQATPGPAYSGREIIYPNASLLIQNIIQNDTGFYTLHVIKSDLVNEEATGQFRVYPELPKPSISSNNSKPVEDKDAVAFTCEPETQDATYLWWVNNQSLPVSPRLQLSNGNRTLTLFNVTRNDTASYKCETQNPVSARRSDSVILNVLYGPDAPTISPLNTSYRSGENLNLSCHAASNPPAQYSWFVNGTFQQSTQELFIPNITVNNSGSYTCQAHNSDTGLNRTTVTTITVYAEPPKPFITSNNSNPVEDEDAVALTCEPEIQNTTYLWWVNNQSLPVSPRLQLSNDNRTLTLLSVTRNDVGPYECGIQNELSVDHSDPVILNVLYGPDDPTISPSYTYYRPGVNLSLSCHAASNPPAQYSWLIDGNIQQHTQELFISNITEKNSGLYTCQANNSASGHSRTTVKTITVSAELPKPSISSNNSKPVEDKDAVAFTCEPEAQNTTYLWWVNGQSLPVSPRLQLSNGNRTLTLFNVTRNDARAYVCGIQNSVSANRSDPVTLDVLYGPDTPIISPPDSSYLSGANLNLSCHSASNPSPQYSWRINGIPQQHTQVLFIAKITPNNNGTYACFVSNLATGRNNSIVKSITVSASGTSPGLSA

T2: recombinant CEACAM5 antigen (Sinobiological, 11077-H08H) (UniProt P06731 35-685)
T2 construct: Bought protein; also called CEACAM5-His recombinant protein; CEACAM5-His antigen; not shown: His tag
T2 sequence (looked up): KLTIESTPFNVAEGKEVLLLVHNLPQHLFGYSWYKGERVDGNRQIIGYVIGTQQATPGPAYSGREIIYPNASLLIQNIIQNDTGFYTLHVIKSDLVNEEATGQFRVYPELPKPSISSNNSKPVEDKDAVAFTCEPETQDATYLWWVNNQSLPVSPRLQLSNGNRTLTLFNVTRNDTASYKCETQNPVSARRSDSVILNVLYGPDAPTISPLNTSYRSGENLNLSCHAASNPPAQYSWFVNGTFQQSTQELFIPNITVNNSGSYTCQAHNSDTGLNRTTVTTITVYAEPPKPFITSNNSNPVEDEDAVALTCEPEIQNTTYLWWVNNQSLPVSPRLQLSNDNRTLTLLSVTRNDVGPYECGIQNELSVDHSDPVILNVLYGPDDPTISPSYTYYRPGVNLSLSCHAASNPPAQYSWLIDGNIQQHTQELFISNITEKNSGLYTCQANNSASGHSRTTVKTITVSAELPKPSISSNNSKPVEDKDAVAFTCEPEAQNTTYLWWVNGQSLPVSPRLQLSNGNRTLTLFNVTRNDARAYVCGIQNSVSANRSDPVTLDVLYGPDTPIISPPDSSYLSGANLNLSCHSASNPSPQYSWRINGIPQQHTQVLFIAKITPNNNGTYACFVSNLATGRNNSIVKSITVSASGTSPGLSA


Columns and labels:
[1] = biological target: T1, CEACAM5 (CD66e) on tumour cells; test: flow cytometry on KATO3 cells, anti-human IgG Fc-APC
Protocol: (§1) After the cells were digested with TrypLE, they were centrifuged and resuspended in DPBS solution containing 2% BSA (FACS buffer solution, 4° C.), and added into a U-bottom 96-well plate, 5×10⁵/100 μl/well, and antibody diluted in concentration gradient was added, incubated at 4° C. for 1 hour, the supernatant was discarded after centrifugation; 100 μl of solution containing anti-human IgG Fc-APC secondary antibody was added and incubated at 4° C. for 1 hour, washing was performed once with FACS buffer, resuspending was performed in 200 μl FACS buffer, and the fluorescence signal value was read on BD Cantoll.

[2] = biological target: T1, CEACAM5 (CD66e) on tumour cells; test: flow cytometry on LS174T cells, anti-human IgG Fc-APC
Protocol: as §1

[3] = biological target: T2, recombinant CEACAM5 antigen …; test: ELISA, coated recombinant CEACAM5-His 1 µg/ml, anti-human IgG Fc-HRP
Protocol: The recombinant CEACAM5 antigen (Sinobiological, 11077-H08H) was diluted to 1 μg/ml with DPBS solution, added to a 96-well plate, 100 μl per well, and coated overnight at 2-8° C.; the coating solution was discarded, washing was performed twice with PBS solution, PBS solution containing 2% BSA was added, and blocked at room temperature for 2 hours; the blocking solution was discarded, the antibody diluted in concentration gradient was added, and incubated at 37° C. for 1 hour; the antibody solution was discarded, and washing was performed for 4 times with PBS solution containing 0.05% Tween 20 (PBST solution); anti-human IgG Fc-HRP secondary antibody was added and incubated at 37° C. for 30 minutes; washing was performed for 4 times with PBST solution, TMB chromogenic substrate was added, color development was performed for 5-10 minutes, and the reaction was terminated with equal volume of 1M H₂SO₄; the absorbance at 450 nm was read on a microplate reader.

EC50 [1]	EC50 [2]	EC50 [3]	Binder
2.7 µg/mL	1.5 µg/mL	0.013 µg/mL	M17 (6A8) chimeric recombinant antibody (antibody, V domains shown) VH: EVQLQQSGAELVRPGASVKLSCTASGFNIKDDYMHWVKQRPEQGLEWIGWIDPENGDTEYASKFQGKATITADTSSNTAYLLLSSLTSEDTAVYYCTTIYYYGSRGAMDYWGQGTSVTVSS VL: QIVLTQSPAIMSASPGEKVTITCSASSSVSYMHWFQQKPGTSPKLWIYTTSTLASGVPARFSGSGSGTSYFLTISRMEAEDAATYYCHQRSSYPLTFGAGTKLELK
13.9 µg/mL	11.9 µg/mL	0.016 µg/mL	M18 (7G1) chimeric recombinant antibody (antibody, V domains shown) VH: QIQLVQSGPELKKPGETVKISCKASGYTFTTYGMTWVKQAPGKGLKWMGWINTYSGVPTYIDDFKGRFAFSLETSASTAYLQINNLKNEDTATYFCGRKDLLGFMDYWGQGTSVTVSS VL: DIQMTQSPSSLSASLGGKVTITCKTSQDINKFMAWYQHKPGKGPRLLIRYTSTLQPGIPSRFSGSGSGRDYSFSIRNLEPEDIATYYCLQYDDLTWTFGGGTKLEI
